Assay [1] addresses T1, human IL-2Rβ (human, UniProt P14784 27-240, limits assumed).
T1 construct: Recombinant protein, coated (ELISA) or immobilised on CM5 (SPR); also called hu IL-2R; interleukin 2 receptor β-chain
T1 sequence: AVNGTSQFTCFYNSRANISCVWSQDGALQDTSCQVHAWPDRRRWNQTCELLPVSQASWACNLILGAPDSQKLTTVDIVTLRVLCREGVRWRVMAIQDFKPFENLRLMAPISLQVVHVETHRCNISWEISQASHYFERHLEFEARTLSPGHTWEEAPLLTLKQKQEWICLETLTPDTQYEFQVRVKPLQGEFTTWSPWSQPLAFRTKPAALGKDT
Briefly: P.E. binding ELISA on coated protein. Here is the method: In a binding ELISA, human or mouse IL-2Rα, IL-2Rβ and IL-2Rγ proteins were coated directly on maxisorp microtiter plates overnight at 4° C. Free binding sites were blocked using 4% Marvel in PBS for 1 hour. Next, 1:5 dilution of P.E. in 1% Marvel/PBS were added to wells and incubated for 1 hour. […] Binding specificity was determined based on O.D. at 450 nm values compared to negative controls.
For orientation: In an ELISA, binding on a coated surface is turned into a signal by an enzyme label.

Assay [2] has as its target T1, human IL-2Rβ. Briefly: SPR (Biacore), P.E. off-rate ranking. A general note: Surface plasmon resonance follows binding to a sensor surface in real time, without labels.
Assay [3] concerns the target T2, human IL-2Rβ (human, UniProt P14784 27-240, limits assumed).
T2 construct: recombinant protein, coated or immobilised; also called hu IL-2R; IL-2R beta
T2 sequence: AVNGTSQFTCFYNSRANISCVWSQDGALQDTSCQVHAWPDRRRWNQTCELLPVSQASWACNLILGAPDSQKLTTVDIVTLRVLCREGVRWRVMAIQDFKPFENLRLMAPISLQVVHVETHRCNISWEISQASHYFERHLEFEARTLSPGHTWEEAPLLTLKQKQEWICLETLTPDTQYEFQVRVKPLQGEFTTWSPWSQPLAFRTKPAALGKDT
As to the kind of experiment: P.E. ELISA, coated protein. In a few lines:
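Plates were coated overnight at 4° C with human or mouse IL-2R chain protein, and free sites blocked for 1 hour in 4% Marvel in PBS. Periplasmic extracts diluted 1:5 in 1% Marvel/PBS then bound for 1 hour, with specificity assessed from 450 nm absorbance relative to negative controls.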

The target of assay [4] is T2, human IL-2Rβ. As to the kind of experiment: SPR, P.E. off-rate. In outline: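 Dissociation rates of nanobody (VHH) periplasmic extracts were measured across a 120s window on an amine-coupled carboxymethyl dextran surface bearing about 2500 RUs of receptor; injection flow 30 uL/min.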

The results in this text go back to US20240409645A1 (DUALYX, published 2024).

B1: FJ1427 P035MP03C10 (VHH)
VHH: QVQLVESGGGLVQAGGSLRLSCAASGRTFSTTEMGWFRQAPGKEREFVAAITWTGRGTMYAESVEGRFTISRENAKNMVYLQMNSLKPEDTAIYYCAAARRGRAAVRSEGGYDFWGQGTQVTVSS
notes: soluble VHH in periplasmic extract; also called clone nr
On to B1, for which, in the assay with human IL-2Rβ [1], the “P.E. binding ELISA OD” value was 0.596 OD450 nm. The off-rate (koff) (as a rule, the first-order rate constant of dissociation) with human IL-2Rβ [2] amounted to 0.000439 s⁻¹.

B2: FJ1427_P035MP02H11 (VHH)
VHH: EVQLVESGGGLVQAGGSLRLSCAASGRTFSTTEMGWFRQAPGKEREFVAAITWTGRGTMYAESVEGRFTISRENAKNMVYLQMNSLKPEDTAIYYCAAARRGRAAVRSEGGYDFWGQGTQVAVSS
notes: as for B1
On to B2, for which the “P.E. binding ELISA OD” value with human IL-2Rβ [1] is 0.795 OD450 nm. In the assay with human IL-2Rβ [2], this molecule displayed a koff of 0.000773 s⁻¹.

B3: FJ1427_P035MP02A01 (VHH)
VHH: QVQLVESGGGLVQTGGSLRLSCVVSGSHFISDVMGWYRQVPGKQRELVADMADGGSAKYGDSVKGRFTILRDSVKNTVYLQMSSLNPEDTGVYYCKAGLWITGRHSDYWGQGTQVTVSS
notes: soluble VHH in periplasmic extract; also called clone nr; 97
In the case of B3, the “P.E. binding ELISA OD” value with human IL-2Rβ [3] is 0.311 OD450 nm. Further, the off-rate (koff) with human IL-2Rβ [4] came to 0.00023 s⁻¹.

B4: FJ1427 P035MP02G02 (VHH)
VHH: QVQLVESGGGLVQPGGSLRLSCAASGSHFISDVMGWYRQVPGKQRELVADMADGGSVKYGDSVKGRFTILRDSVKNTVTLQMSSLNPEDTGVYYCKAGLWITGRHFDYWGQGIQVTVTS
notes: as for B1
Consider B4, for which, in the assay with human IL-2Rβ [3], the “P.E. binding ELISA OD” value came to 0.177 OD450 nm. Also, the koff with human IL-2Rβ [4] was 0.000112 s⁻¹.

B5: FJ1427_P035MP02B02 (VHH)
VHH: EVQLVESGGTLVQTGGSLRLSCVVSGSHFISDVMGWYRQVPGKQRELVADMADGGSAKYGDSVKGRFTIVRDSVKNTVYLQMSSLNPEDTGVYYCKAGLWIKGRHSDYWGQGTQVTVTS
notes: as for B1
For the molecule B5, the “P.E. binding ELISA OD” value in the assay with human IL-2Rβ [3] was 0.343 OD450 nm. For the same molecule, the koff in the assay with human IL-2Rβ [4] was 0.000164 s⁻¹.

B6: FJ1427_P035MP02G01 (VHH)
VHH: QVQLVESGGGLVQTGGSLRLSCAVSGSRFISDVMGWYRQVPGKQRELVADMADGGSAKYADSVKGRFSILRDSAKNTVYLQMSSLKPEDTGIYYCKAGLWIAGRHSDYWGQGTQVTVSS
notes: as for B1
B6: the “P.E. binding ELISA OD” value with human IL-2Rβ [3] was determined as 0.169 OD450 nm. The molecule also displayed a koff with human IL-2Rβ [4] of 0.000368 s⁻¹.

B7: FJ1427 P035MP02D02 (VHH)
VHH: QVQLVESGGGLVQVGGSLSVSCAASGRSFDSITMAYFRQAPGNEREFIAGINFSGSRTAYGDSVKGRFTISRDNAKNTVFLQMNSLNPEDTAVYYCAASPRGFYGPGHALYDYWGQGTQVTVSS
notes: as for B1
In the case of B7, the “P.E. binding ELISA OD” value with human IL-2Rβ [3] stood at 0.831 OD450 nm. The molecule also yielded a koff with human IL-2Rβ [4] of 0.000529 s⁻¹.

B8: FJ1427_P035MP02F11 (VHH)
VHH: EVQLVESGGGLVQAGGSLRLSCAASGRDFSSYAMGWFRQAPGKEREFVVAITWTKRSTDFPDSVKGRFTISRDNAKNTVYLDMNSLKPEDTAVYYCASARGLPVTPLGDIIYWGEGTLVTVSS
notes: as for B1
As for B8, the “P.E. binding ELISA OD” value with human IL-2Rβ [1] is 0.33 OD450 nm. Besides, the koff with human IL-2Rβ [2] was determined as 0.000686 s⁻¹.

B9: FJ1427_P035MP02G11 (VHH)
VHH: QLQLVESGGGLVQAGGSLRLSCAASGRDFSSYAMGWFRQAPGKEREFVVAITWTKRSTDFPDSVKGRFTISRDNAKNTVYLDMNSLKPEDTAVYYCASARGLPVTPLGDIIYWGEGTLVTVSS
notes: as for B1
Take B9: in the assay with human IL-2Rβ [1], the “P.E. binding ELISA OD” value was found to be 0.429 OD450 nm. The molecule further returned an off-rate constant (koff) with human IL-2Rβ [2] of 0.000708 s⁻¹.

B10: FJ1427 P035MP03F07 (VHH)
VHH: QVQLVESGGGLVQAGGSLRLSCAASGRTFSSYVMGWFRQAPGKEREFVVAITGTRRTTDWPDSVKGRFTISRDNAQNTVYLDMNSLKPEDTAVYYCASARGLPVPPLGDIIHWGEGTLVTVSS
notes: as for B1
With B10, in the assay with human IL-2Rβ [1], the “P.E. binding ELISA OD” value was found to be 0.156 OD450 nm. In the assay with human IL-2Rβ [2], this molecule yielded a koff of 0.00126 s⁻¹.

B11: FJ1427_P035MP02H01 (VHH)
VHH: QVQLVESGGGLVQPGGSLGLSCAASGFTFDNYAMSWVRQAPGKGLEWVSSITGAGRGTHYADSVKGRFTISRDNAKNTLYLQMNSLKPEDTAVYYCAKYSSSTYYPPTPARGTDYRGPGTQVTVSS
notes: as for B1
For B11, the “P.E. binding ELISA OD” value in the assay with human IL-2Rβ [3] came to 0.487 OD450 nm. In the assay with human IL-2Rβ [4], this molecule yielded a koff of 0.00106 s⁻¹.
